# Laboratory results from patent US20210095036A1 (University of Pennsylvania, published 2021).
# T1: GFRα4 isoform a (GFRα4a), Fc fusion with 6 His (human)
# T1 construct: the entry holds the whole fusion; also called GFR4α4a; immobilized GFRα4 isoform a
# T1 chain: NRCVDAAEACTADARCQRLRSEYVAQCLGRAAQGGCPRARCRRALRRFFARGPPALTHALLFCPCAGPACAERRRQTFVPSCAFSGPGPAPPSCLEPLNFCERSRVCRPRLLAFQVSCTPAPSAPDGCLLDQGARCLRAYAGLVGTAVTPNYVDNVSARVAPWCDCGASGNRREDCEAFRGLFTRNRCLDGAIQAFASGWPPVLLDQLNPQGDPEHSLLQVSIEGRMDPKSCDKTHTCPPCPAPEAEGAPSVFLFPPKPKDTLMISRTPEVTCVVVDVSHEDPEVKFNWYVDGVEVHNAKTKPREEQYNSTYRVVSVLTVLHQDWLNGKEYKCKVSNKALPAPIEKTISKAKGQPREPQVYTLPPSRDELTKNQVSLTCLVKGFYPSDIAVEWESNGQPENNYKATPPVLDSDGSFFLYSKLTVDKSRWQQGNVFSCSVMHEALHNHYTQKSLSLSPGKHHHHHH
# How the values were obtained:
# [1] = biological target: T2, GFRα4 isoform b (GFRα4b), Fc fusion (human); experiment: phage ELISA, immobilized GFRα4b; second token of the cell
# T2 construct: the entry holds the whole fusion; also called GFR4α4b; GFRα4-Fc
# Excerpt: (§1) To perform these ELISAs, the GFRα4a isoform comprising a portion of GFRα4a (Asn24 -Ser245, UniProt accession #Q9GZZ7-2) was used, followed by a Factor Xa cleavage site/linker, a portion of optimized IgG1 Fc domain (Pro100-Lys330), and 6 His residues for purification. The GFRα4b isoform comprised a portion of GFRα4b (Asn24-Va1274, UniProt #Q9GZZ7-1), followed by a TEV cleavage site linker, and a portion of human IgG1 Fc domain (Asp104-Lys330).
# [2] = biological target: T1, GFRα4 isoform a (GFRα4a), Fc fusion …; experiment: phage ELISA, immobilized GFRα4a; first token of the cell
# Excerpt: as §1
Binder,binding result [1],binding result [2]
"8.H2m1.L2m1 (scFv, pIII not in the entry; order Vλ-linker-VH; The printed entry has an E before QSVKE of the VH; also called scFv 8) scFv: QFVLTQPPSASGTPGQRVTISCTLSSAHKTYTIDWYQQLPGTAPKLLIYVKSDGSYTKGTGVPDRFSGSSSGADRYLAISGLQSEDEADYYCGADDNGGYVFGGGTQLTVTGGGSSRSSSSGGGGSGGGGEQSVKESGGGLVQPGGSLRLSCAASGFTLSRHALTWVRQAPGKGLEWIGAIDNAGTTYYASWAKSRFTISRNTDLHTVYLQMNSLRAEDTAVYFCARVFYDINSGYYLDGMDLWGPGTLVTVSS",binds,binds
"10.H2.L1m1 (scFv, pIII not in the entry; order Vλ-linker-VH; also called scFv 10) scFv: QFVLTQSPSASASLGASVKLTCTLSSAHKTYTIDWYQQQPEKGPRYLMQVKSDGSYTKGTGVPDRFSGSSSGADRYLTISSLQSEDEADYYCGADDNGGYVFGGGTQLTVTGGGSSRSSSSGGGGSGGGGEVQLVESGGGLVQPGGSLRLSCAASGFTFSRHALTWVRQAPGKGLEWVSAIDNAGTTYYASWAKSRFTISRDNAKNSLYLQMNSLRAEDTAVYYCARVFYDINSGYYLDGMDLWGPGTLVTVSS",binds,binds
"24.H2.L3m1 (scFv, pIII not in the entry; order Vλ-linker-VH; also called scFv 24) scFv: QFVLTQPASVSGSPGQSITISCTLSSAHKTYTIDWYQQHPGKAPKYLMQVKSDGSYTKGTGVPNRFSGSSSGADRYLTISGLQAEDEADYVCGADDNGGYVFGGGTQLTVTGGGSSRSSSSGGGGSGGGGEVQLVESGGGLVQPGGSLRLSCAASGFTFSRHALTWVRQAPGKGLEWVSAIDNAGTTYYASWAKSRFTISRDNAKNSLYLQMNSLRAEDTAVYYCARVFYDINSGYYLDGMDLWGPGTLVTVSS",binds,binds
"19.H2.L2m2 (scFv, pIII not in the entry; order Vλ-linker-VH; also called scFv 19) scFv: QFVLTQPPSASGTPGQRVTISCTLSSAHKTYTIDWYQQLPGTAPKLLIYVKSDGSYTKGTGVPDRFSGSSSGADASLAISGLQSEDEADYYCGADDNGGYVFGGGTQLTVLGGGSSRSSSSGGGGSGGGGEVQLVESGGGLVQPGGSLRLSCAASGFTFSRHALTWVRQAPGKGLEWVSAIDNAGTTYYASWAKSRFTISRDNAKNSLYLQMNSLRAEDTAVYYCARVFYDINSGYYLDGMDLWGPGTLVTVSS",no binding,no binding
"6.H2.L2m1 (scFv, pIII not in the entry; order Vλ-linker-VH; also called scFv 6) scFv: QFVLTQPPSASGTPGQRVTISCTLSSAHKTYTIDWYQQLPGTAPKLLIYVKSDGSYTKGTGVPDRFSGSSSGADRYLAISGLQSEDEADYYCGADDNGGYVFGGGTQLTVTGGGSSRSSSSGGGGSGGGGEVQLVESGGGLVQPGGSLRLSCAASGFTFSRHALTWVRQAPGKGLEWVSAIDNAGTTYYASWAKSRFTISRDNAKNSLYLQMNSLRAEDTAVYYCARVFYDINSGYYLDGMDLWGPGTLVTVSS",binds,binds
"4.H1m1.L3m1 (scFv, pIII not in the entry; order Vλ-linker-VH; also called scFv 4) scFv: QFVLTQPASVSGSPGQSITISCTLSSAHKTYTIDWYQQHPGKAPKYLMQVKSDGSYTKGTGVPNRFSGSSSGADRYLTISGLQAEDEADYVCGADDNGGYVFGGGTQLTVTGGGSSRSSSSGGGGSGGGGQQSVKESGPGLVKPSETLSLTCAVSGFSLSRHALTWVRQPPGKGLEWIGAIDNAGTTYYASWAKSRVTISRNTDLHTVSLKLSSVTAADTAVYFCARVFYDINSGYYLDGMDLWGPGTLVTVSS",binds,binds
"28.H1.L3m5 (scFv, pIII not in the entry; order Vλ-linker-VH; also called scFv 28) scFv: QSALTQPASVSGSPGQSITISCTGTSAHKTYTVSWYQQHPGKAPKLMIYVKSDGSYTKGTGVPNRFSGSSSGADRYLTISGLQAEDEADYYCGADDNGGYVFGGGTQLTVLGGGSSRSSSSGGGGSGGGGQVQLQESGPGLVKPSETLSLTCAVSGYSISRHALTWIRQPPGKGLEWIGAIDNAGTTYYASWAKSRVTISVDTSKNQFSLKLSSVTAADTAVYYCARVFYDINSGYYLDGMDLWGPGTLVTVSS",no binding,no binding
"17.H1.L3m2 (scFv, pIII not in the entry; order Vλ-linker-VH; also called scFv 17) scFv: QFVLTQPASVSGSPGQSITISCTLSSAHKTYTIDWYQQHPGKAPKLMIQVKSDGSYTKGTGVSNRFSGSSSGADRYLTISGLQAEDEADYYCGADDNGGYVFGGGTQLTVLGGGSSRSSSSGGGGSGGGGQVQLQESGPGLVKPSETLSLTCAVSGYSISRHALTWIRQPPGKGLEWIGAIDNAGTTYYASWAKSRVTISVDTSKNQFSLKLSSVTAADTAVYYCARVFYDINSGYYLDGMDLWGPGTLVTVSS",binds,
"12.H2m1.L1m1 (scFv, pIII not in the entry; order Vλ-linker-VH; The printed entry has an E before QSVKE of the VH; also called scFv 12) scFv: QFVLTQSPSASASLGASVKLTCTLSSAHKTYTIDWYQQQPEKGPRYLMQVKSDGSYTKGTGVPDRFSGSSSGADRYLTISSLQSEDEADYYCGADDNGGYVFGGGTQLTVTGGGSSRSSSSGGGGSGGGGEQSVKESGGGLVQPGGSLRLSCAASGFTLSRHALTWVRQAPGKGLEWIGAIDNAGTTYYASWAKSRFTISRNTDLHTVYLQMNSLRAEDTAVYFCARVFYDINSGYYLDGMDLWGPGTLVTVSS",binds,binds
"25.H1.L1m3 (scFv, pIII not in the entry; order Vλ-linker-VH; also called scFv 25) scFv: QLVLTQSPSASASLGASVKLTCTLSSAHKTYTIDWYQQQPEKGPRYLMQVKSDGSYTKGTGVPDRFSGSSSGADRYLTISSLQSEDEADYYCGADDNGGYVFGGGTQLTVLGGGSSRSSSSGGGGSGGGGQVQLQESGPGLVKPSETLSLTCAVSGYSISRHALTWIRQPPGKGLEWIGAIDNAGTTYYASWAKSRVTISVDTSKNQFSLKLSSVTAADTAVYYCARVFYDINSGYYLDGMDLWGPGTLVTVSS",binds,binds
"14.H1.L1m1 (scFv, pIII not in the entry; order Vλ-linker-VH; also called scFv 14) scFv: QFVLTQSPSASASLGASVKLTCTLSSAHKTYTIDWYQQQPEKGPRYLMQVKSDGSYTKGTGVPDRFSGSSSGADRYLTISSLQSEDEADYYCGADDNGGYVFGGGTQLTVTGGGSSRSSSSGGGGSGGGGQVQLQESGPGLVKPSETLSLTCAVSGYSISRHALTWIRQPPGKGLEWIGAIDNAGTTYYASWAKSRVTISVDTSKNQFSLKLSSVTAADTAVYYCARVFYDINSGYYLDGMDLWGPGTLVTVSS",binds,binds

# The remaining lines, values ahead:
binding result [1],binding result [2],Binder
no binding,no binding,"20.H2.L2m3 (scFv, pIII not in the entry; order Vλ-linker-VH; also called scFv 20) scFv: QSVLTQPPSASGTPGQRVTISCTLSSAHKTYTIDWYQQLPGTAPKLLIYVKSDGSYTKGTGVPDRFSGSKSGTSASLAISGLQSEDEADYYCGADDNGGYVFGGGTQLTVLGGGSSRSSSSGGGGSGGGGEVQLVESGGGLVQPGGSLRLSCAASGFTFSRHALTWVRQAPGKGLEWVSAIDNAGTTYYASWAKSRFTISRDNAKNSLYLQMNSLRAEDTAVYYCARVFYDINSGYYLDGMDLWGPGTLVTVSS"
no binding,no binding,"27.H1.L3m4 (scFv, pIII not in the entry; order Vλ-linker-VH; also called scFv 27) scFv: QSALTQPASVSGSPGQSITISCTGTSAHKTYTVSWYQQHPGKAPKYLMQVKSDGSYTKGTGVPNRFSGSSSGADRYLTISGLQAEDEADYYCGADDNGGYVFGGGTQLTVLGGGSSRSSSSGGGGSGGGGQVQLQESGPGLVKPSETLSLTCAVSGYSISRHALTWIRQPPGKGLEWIGAIDNAGTTYYASWAKSRVTISVDTSKNQFSLKLSSVTAADTAVYYCARVFYDINSGYYLDGMDLWGPGTLVTVSS"
no binding,no binding,"18.H1.L3m3 (scFv, pIII not in the entry; order Vλ-linker-VH; also called scFv 18) scFv: QSALTQPASVSGSPGQSITISCTGTSAHKTYTIDWYQQHPGKAPKLMIYVKSDGSYTKGTGVSNRFSGSKSGNTASLTISGLQAEDEADYYCGADDNGGYVFGGGTQLTVLGGGSSRSSSSGGGGSGGGGQVQLQESGPGLVKPSETLSLTCAVSGYSISRHALTWIRQPPGKGLEWIGAIDNAGTTYYASWAKSRVTISVDTSKNQFSLKLSSVTAADTAVYYCARVFYDINSGYYLDGMDLWGPGTLVTVSS"
no binding,no binding,"26.H1.L1m4 (scFv, pIII not in the entry; order Vλ-linker-VH; also called scFv 26) scFv: QLVLTQSPSASASLGASVKLTCTLSSAHKTYTIAWHQQQPEKGPRYLMQVKSDGSYTKGTGVPDRFSGSSSGADRYLTISSLQSEDEADYYCGADDNGGYVFGGGTQLTVLGGGSSRSSSSGGGGSGGGGQVQLQESGPGLVKPSETLSLTCAVSGYSISRHALTWIRQPPGKGLEWIGAIDNAGTTYYASWAKSRVTISVDTSKNQFSLKLSSVTAADTAVYYCARVFYDINSGYYLDGMDLWGPGTLVTVSS"
no binding,no binding,"22.H1.L1m2 (scFv, pIII not in the entry; order Vλ-linker-VH; also called scFv 22) scFv: QFVLTQSPSASASLGASVKLTCTLSSAHKTYTIDWHQQQPEKGPRYLMQVKSDGSYTKGTGIPDRFSGSSSGAERYLTISSLQSEDEADYYCGADDNGGYVFGGGTQLTVLGGGSSRSSSSGGGGSGGGGQVQLQESGPGLVKPSETLSLTCAVSGYSISRHALTWIRQPPGKGLEWIGAIDNAGTTYYASWAKSRVTISVDTSKNQFSLKLSSVTAADTAVYYCARVFYDINSGYYLDGMDLWGPGTLVTVSS"
